According to patent US20070185028A1, “Compositions and methods for treatment of protein misfolding and protein aggregation diseases” (priority 2004, published 2007):

Assays:
human γD crystallin = molecular target: T1, human γD crystallin (Homo sapiens, UniProt P07320); assay: αB crystallin protein pin array with γD crystallin; assay type: binding; conditions: unheated γD crystallin; similar maxima pre-heated 45° C.
T1 construct: made in house
T1 sequence (P07320 1-174): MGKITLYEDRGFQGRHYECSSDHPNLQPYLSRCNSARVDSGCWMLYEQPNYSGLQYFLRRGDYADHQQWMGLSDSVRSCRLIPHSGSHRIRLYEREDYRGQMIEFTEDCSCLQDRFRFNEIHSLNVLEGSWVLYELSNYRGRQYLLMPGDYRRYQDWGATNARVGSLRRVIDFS
Source text: (§1) Synthesis of Pins, binding and detection of peptides binding to ligand proteins. The αB crystallin protein pin array was used to measure the interaction between peptides and chaperone target proteins including bovine βH crystallin, human γD crystallin, equine alcohol dehydrogenase (ADH) and porcine citrate synthase (CS) as described (FIG. 12). Ghosh and Clark, Protein Sci 14: 684-95, 2005.
(§2) Refer to the methods section for detailed protocols. The absorbance corresponding to the blue coloration in each well was measured at λ=450 nm and plotted against the amino acid sequence of the corresponding peptide in that well (FIGS. 13 and 14). Wells containing peptides that have strong interactions with target proteins are dark blue and wells containing peptides that have weak or no interaction with target proteins are light blue or clear.
(§3) The purity of the target proteins used in the pin array assays, bovine βH crystallin, human γD crystallin, equine alcohol dehydrogenase (ADH) and porcine citrate synthase (CS) were determined to be >90% by SDS-PAGE. In addition, primary antibodies for each target protein were specific to that target protein and consequently contaminating proteins that may bind to the peptides will not be detected. Eighty-four sequential and overlapping peptide fragments corresponding to residues 1-175 of human αB crystallin were synthesized employing a simultaneous peptide synthesis strategy developed by Geysen, called Multipin Peptide Synthesis (Mimotopes, San Diego, Calif.). Geysen, Southeast Asian J Trop Med Public Health 21: 523-33, 1990; Chin et al., J Org Chem 62: 538-539, 1997. Peptides were immobilized on derivatized polyethylene pins arranged in a microtiter ELISA plate format. Each peptide was eight amino acids in length and consecutive peptides were offset by two amino acids. All peptides were bound covalently to the surface of the plastic pins. The first peptide was 1MDIAIHHP8 and the last peptide was 168PAVTAAPK175 for human αB crystallin.
(§4) Ghosh and Clark, Protein Sci 14: 684-95, 2005. […] The intensity of the blue color in the wells was measured at 450 nm using an ELISA plate-reader (BioTek, Winooski, Vt.). The intensity of the blue color (plotted on the X-axis) was a measure of the interaction between αB crystallin peptides (plotted on the Y-axis) and target proteins. To measure the effect of temperature on the interactions between interactive peptides and the target proteins, the target proteins were heated in a water-bath at 45° C. for fifteen minutes prior to use. Pin arrays are unable to differentiate between monomers, dimers or oligomers of target proteins that exist in solution. Instead, pin arrays are very sensitive detectors of interactions between individual peptides and the entire population (monomers, dimers or oligomers) of specific target proteins that may exist in solution under specific conditions. Each target protein was assayed two to five times. A single pin array was used for all experiments and no change in interactions was observed after more than thirty repetitions. The last three peptides of the protein pin array, 163REEKPAVT170, 165EKPAVTAA172, 167PAVTAAPK174, correspond to the epitope (163REEKPAVTAAPKK175) recognized by the primary antibody for human αB crystallin. A positive reaction is observed for these three peptides in the absence of human αB crystallin as the ligand due to direct binding of the anti-human αB crystallin antibody to these three peptides. The loss of efficiency for the pin array was measured using this assay. The loss of efficiency for the pin array was determined to be <5% by after more than 30 assays.
When βH crystallin was replaced with γD crystallin, a native protein constituent of lens cytoplasm from the same gene family as the β crystallins, as the ligand in the pin array, twelve interactive sequences were identified (FIG. 14: striped bars). […]

[1] = molecular target: T2, equine alcohol dehydrogenase (ADH) (Equus caballus, UniProt P00327); assay: αB crystallin protein pin array with alcohol dehydrogenase; assay type: binding; conditions: ADH as ligand in the pin array
T2 construct: purchased Sigma-Aldrich, MO 05646
T2 sequence (P00327 whole entry): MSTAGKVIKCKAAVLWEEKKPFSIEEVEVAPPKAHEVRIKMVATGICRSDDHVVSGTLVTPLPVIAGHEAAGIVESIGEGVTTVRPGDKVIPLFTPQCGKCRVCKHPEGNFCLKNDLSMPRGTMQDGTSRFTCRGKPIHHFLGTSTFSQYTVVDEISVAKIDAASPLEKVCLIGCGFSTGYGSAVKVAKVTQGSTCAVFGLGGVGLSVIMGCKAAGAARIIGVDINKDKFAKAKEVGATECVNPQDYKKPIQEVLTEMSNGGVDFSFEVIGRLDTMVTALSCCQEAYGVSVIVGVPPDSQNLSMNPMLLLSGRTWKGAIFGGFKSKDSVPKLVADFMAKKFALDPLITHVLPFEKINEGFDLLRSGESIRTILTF
Source text: as §1, §2, §3, §4
The pattern of absorbance at k=450 nm when αB crystallin peptides were assayed with unheated and pre-heated ADH was similar to the absorbance pattern obtained with unheated and pre-heated βH/γD crystallin (FIG. 17). […]

| absorbance at 450 nm, interaction with γD crystallin (human γD crystallin) | absorbance at 450 nm, interaction with ADH [1] | Sequence |
| --- | --- | --- |
| maximum absorbances | Maximum absorbances | FSVNLDVK [Peptide 38] |
| maximum absorbances | Maximum absorbances | LTITSSLS [Peptide 66] |
| maximum absorbances | Maximum absorbances | WIRRPFFP [Peptide 5] |
